Laboratory results as given in patent US20050175995A1 (UNIVERSITY OF UTAH RESEARCH FOUNDATION, published 2005).
Residue numbers refer to the chain shown, from its start. Numbers in names are those of the source.

Biological target: T1, wild-type (WT) Kir2.1 subunit (human, UniProt P63252 1-427)
T1 sequence: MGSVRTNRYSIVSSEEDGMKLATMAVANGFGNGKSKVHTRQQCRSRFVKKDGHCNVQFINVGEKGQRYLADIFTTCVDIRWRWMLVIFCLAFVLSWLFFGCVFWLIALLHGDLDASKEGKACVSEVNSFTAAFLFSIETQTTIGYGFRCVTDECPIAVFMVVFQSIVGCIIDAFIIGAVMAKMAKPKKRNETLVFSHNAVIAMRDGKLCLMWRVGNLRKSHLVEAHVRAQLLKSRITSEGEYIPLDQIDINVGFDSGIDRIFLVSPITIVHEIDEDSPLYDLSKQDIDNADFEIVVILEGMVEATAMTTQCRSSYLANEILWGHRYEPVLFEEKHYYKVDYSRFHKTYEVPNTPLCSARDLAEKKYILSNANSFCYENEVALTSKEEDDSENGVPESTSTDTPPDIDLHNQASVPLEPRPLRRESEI
Assay: cell-based or functional assay

Reduction in current on co-expression of WT and D71V subunits, relative to WT current: ~0.938 fraction of WT current
B1: D71V Kir2.1 mutant subunit (other)
chain: T1 sequence with D71V
